Data published in article PMC5730197, “Evolution-guided adaptation of an adenylation domain substrate specificity to an unusual amino acid” (PLoS ONE, 2017).

What was measured:
Assay in all cases: purified protein
Details in all cases: amino acid-dependent exchange of 32P from PPi into ATP
purified protein [1] = substrate: CCC[C@H]1CN[C@H](C(=O)O)C1; type: biochemical, Streptomyces lincolnensis
purified protein [2] = substrate: O=C(O)[C@@H]1CCCN1
purified protein [3] = substrate: CCC[C@H]1CN[C@H](C(=O)O)C1; type: biochemical, Streptomyces caelestis
purified protein [4] = substrate: CCCCC[C@H]1CN[C@H](C(=O)O)C1; type: biochemical, Streptomyces caelestis

B1: LmbC (Streptomyces lincolnensis; I300L) (protein)
chain: MSSSVRLSTLLASAAEARPEAPAVLGETRLPVTYGELAARAGGIQAALAGLGVRAGDRVALLSGRTDADAVAAVHAILAAGAVYVPLDAASPPARWASVSRVCAPTAVVGERALLDRFAAAVPGPRRLALPSDGDELPAGRLDPVRSDGTDVAYLLTTSGSTGVPKCVAHTGAGAVAFLEWMVGAFPVGGDDVFACHAPLHFDVSVASVLGSALGGAALAPVPRELSGFPVELATWIAERAVTVWLSVPYPLARLSGLEERAARERLATLRTVVFAGDVFPHQRLAALMRCAPGARFLNLYGPTETNGCTYEVVDAPPAGPVPIGRPVECAECWVEDDDGRPVDAVGSVGELVVAGPTVAAGYWGVEGHGAERFRTGETCPGGRAYATGDQVRVLPGGRYAFLGRMDNMIKMRGQRFELEEVENAVRLAPGVEDCCVVKVDVRDDHSRLLAVVVGPGAGDPRTLREHCLTRLPSWAVPHRFLTAAALPLGSTGKVDRRALREELVTRGE
notes: full-length stand-alone A-domain, C-terminal His8 tag kept, pET42b (plmbC1), E. coli BL21(DE3)
Purified protein [1]
  Km: 0.24 ± 0.009 mM
  kcat: 0.75 ± 0.00833 s⁻¹
  kcat/Km: 3080 M⁻¹ s⁻¹

B2: LmbC (Streptomyces lincolnensis; A207F) (protein)
chain: MSSSVRLSTLLASAAEARPEAPAVLGETRLPVTYGELAARAGGIQAALAGLGVRAGDRVALLSGRTDADAVAAVHAILAAGAVYVPLDAASPPARWASVSRVCAPTAVVGERALLDRFAAAVPGPRRLALPSDGDELPAGRLDPVRSDGTDVAYLLTTSGSTGVPKCVAHTGAGAVAFLEWMVGAFPVGGDDVFACHAPLHFDVSVFSVLGSALGGAALAPVPRELSGFPVELATWIAERAVTVWLSVPYPLARLSGLEERAARERLATLRTVVFAGDVFPHQRLAALMRCAPGARFLNIYGPTETNGCTYEVVDAPPAGPVPIGRPVECAECWVEDDDGRPVDAVGSVGELVVAGPTVAAGYWGVEGHGAERFRTGETCPGGRAYATGDQVRVLPGGRYAFLGRMDNMIKMRGQRFELEEVENAVRLAPGVEDCCVVKVDVRDDHSRLLAVVVGPGAGDPRTLREHCLTRLPSWAVPHRFLTAAALPLGSTGKVDRRALREELVTRGE
notes: as for B1
Purified protein [1]
  Km: 8.6 ± 1 mM
  kcat: 0.0733 ± 0.005 s⁻¹
  kcat/Km: 8.5 M⁻¹ s⁻¹

B3: LmbC (Streptomyces lincolnensis; V274C) (protein)
chain: MSSSVRLSTLLASAAEARPEAPAVLGETRLPVTYGELAARAGGIQAALAGLGVRAGDRVALLSGRTDADAVAAVHAILAAGAVYVPLDAASPPARWASVSRVCAPTAVVGERALLDRFAAAVPGPRRLALPSDGDELPAGRLDPVRSDGTDVAYLLTTSGSTGVPKCVAHTGAGAVAFLEWMVGAFPVGGDDVFACHAPLHFDVSVASVLGSALGGAALAPVPRELSGFPVELATWIAERAVTVWLSVPYPLARLSGLEERAARERLATLRTVCFAGDVFPHQRLAALMRCAPGARFLNIYGPTETNGCTYEVVDAPPAGPVPIGRPVECAECWVEDDDGRPVDAVGSVGELVVAGPTVAAGYWGVEGHGAERFRTGETCPGGRAYATGDQVRVLPGGRYAFLGRMDNMIKMRGQRFELEEVENAVRLAPGVEDCCVVKVDVRDDHSRLLAVVVGPGAGDPRTLREHCLTRLPSWAVPHRFLTAAALPLGSTGKVDRRALREELVTRGE
notes: as for B1
Purified protein [1]
  Km: 0.39 ± 0.04 mM
  kcat: 0.65 ± 0.0167 s⁻¹
  kcat/Km: 1670 M⁻¹ s⁻¹

B4: LmbC (Streptomyces lincolnensis; L246Y) (protein)
chain: MSSSVRLSTLLASAAEARPEAPAVLGETRLPVTYGELAARAGGIQAALAGLGVRAGDRVALLSGRTDADAVAAVHAILAAGAVYVPLDAASPPARWASVSRVCAPTAVVGERALLDRFAAAVPGPRRLALPSDGDELPAGRLDPVRSDGTDVAYLLTTSGSTGVPKCVAHTGAGAVAFLEWMVGAFPVGGDDVFACHAPLHFDVSVASVLGSALGGAALAPVPRELSGFPVELATWIAERAVTVWYSVPYPLARLSGLEERAARERLATLRTVVFAGDVFPHQRLAALMRCAPGARFLNIYGPTETNGCTYEVVDAPPAGPVPIGRPVECAECWVEDDDGRPVDAVGSVGELVVAGPTVAAGYWGVEGHGAERFRTGETCPGGRAYATGDQVRVLPGGRYAFLGRMDNMIKMRGQRFELEEVENAVRLAPGVEDCCVVKVDVRDDHSRLLAVVVGPGAGDPRTLREHCLTRLPSWAVPHRFLTAAALPLGSTGKVDRRALREELVTRGE
notes: as for B1
Purified protein [2]
  Km: 54 ± 2 mM
  kcat: 0.217 s⁻¹
  kcat/Km: 4 M⁻¹ s⁻¹
Purified protein [1]
  Km: 33 ± 6 mM
  kcat: 0.00617 ± 0.0005 s⁻¹
  kcat/Km: 0.183 M⁻¹ s⁻¹

B5: LmbC (Streptomyces lincolnensis; G308V) (protein)
chain: MSSSVRLSTLLASAAEARPEAPAVLGETRLPVTYGELAARAGGIQAALAGLGVRAGDRVALLSGRTDADAVAAVHAILAAGAVYVPLDAASPPARWASVSRVCAPTAVVGERALLDRFAAAVPGPRRLALPSDGDELPAGRLDPVRSDGTDVAYLLTTSGSTGVPKCVAHTGAGAVAFLEWMVGAFPVGGDDVFACHAPLHFDVSVASVLGSALGGAALAPVPRELSGFPVELATWIAERAVTVWLSVPYPLARLSGLEERAARERLATLRTVVFAGDVFPHQRLAALMRCAPGARFLNIYGPTETNVCTYEVVDAPPAGPVPIGRPVECAECWVEDDDGRPVDAVGSVGELVVAGPTVAAGYWGVEGHGAERFRTGETCPGGRAYATGDQVRVLPGGRYAFLGRMDNMIKMRGQRFELEEVENAVRLAPGVEDCCVVKVDVRDDHSRLLAVVVGPGAGDPRTLREHCLTRLPSWAVPHRFLTAAALPLGSTGKVDRRALREELVTRGE
notes: as for B1
Purified protein [1]
  Km: 5.8 ± 0.6 mM
  kcat: 0.0065 ± 0.000333 s⁻¹
  kcat/Km: 1.17 M⁻¹ s⁻¹

B6: CcbC (Streptomyces caelestis; V306G) (protein)
chain: MNTSTVRNSLSTLLADTAAATPGATALREPGGDTTYRDLAALAGGIQTALAEAGVRPGDRVAVLAPQTAAAVAAVHAVLSAGAAYVPLDPASPPARWAAVCGMSTPRAVVGTRDALAKLTAELPHLATVDLEAPWPEAPLAPVEREAADLGAVLPTSGSTGVPKGVAISREALLAFASWMVDTFEVGADDVIAGFSPLHFDVSVFSLFGAALTGAALAPAPPQLAGFPHELASWADDAGITVWYSVPYPLARLGTLDAVVLEQRLGRLRCVCFAGEVFPHRQLATLMSKMPWVRYTNLYGPTETNGCTFEQVLAPPDEAIAIGSPACGAECWVERDGERVDTEGAVGELIVAGPTVADGYWGNEDETARRFRFGREYRSGRAYATGDQVRILPDGRYAYLGRQDHMVKIRGQRLELEEVESVLGTADGVTGCCVVAVTPPGRPALLCAAVVGDQLDHAALRSHCRGRLPSWAIPQRFLEVPAIPLTSTGKTDRQEVRRRVMAELV
Purified protein [2]
  Km: 37 ± 2 mM

B7: CcbC (Streptomyces caelestis; V306G/Y244L) (protein)
chain: MNTSTVRNSLSTLLADTAAATPGATALREPGGDTTYRDLAALAGGIQTALAEAGVRPGDRVAVLAPQTAAAVAAVHAVLSAGAAYVPLDPASPPARWAAVCGMSTPRAVVGTRDALAKLTAELPHLATVDLEAPWPEAPLAPVEREAADLGAVLPTSGSTGVPKGVAISREALLAFASWMVDTFEVGADDVIAGFSPLHFDVSVFSLFGAALTGAALAPAPPQLAGFPHELASWADDAGITVWLSVPYPLARLGTLDAVVLEQRLGRLRCVCFAGEVFPHRQLATLMSKMPWVRYTNLYGPTETNGCTFEQVLAPPDEAIAIGSPACGAECWVERDGERVDTEGAVGELIVAGPTVADGYWGNEDETARRFRFGREYRSGRAYATGDQVRILPDGRYAYLGRQDHMVKIRGQRLELEEVESVLGTADGVTGCCVVAVTPPGRPALLCAAVVGDQLDHAALRSHCRGRLPSWAIPQRFLEVPAIPLTSTGKTDRQEVRRRVMAELV
notes: full-length stand-alone A-domain, N-terminal His6 tag kept, pET28b (pccbC), E. coli BL21(DE3)
Purified protein [3]
  Km: 24 ± 3 mM
  kcat: 0.001 ± 5e-05 s⁻¹
  kcat/Km: 0.0433 M⁻¹ s⁻¹

B8: CcbC (Streptomyces caelestis; F205A/V306G/Y244L) (protein)
chain: MNTSTVRNSLSTLLADTAAATPGATALREPGGDTTYRDLAALAGGIQTALAEAGVRPGDRVAVLAPQTAAAVAAVHAVLSAGAAYVPLDPASPPARWAAVCGMSTPRAVVGTRDALAKLTAELPHLATVDLEAPWPEAPLAPVEREAADLGAVLPTSGSTGVPKGVAISREALLAFASWMVDTFEVGADDVIAGFSPLHFDVSVASLFGAALTGAALAPAPPQLAGFPHELASWADDAGITVWLSVPYPLARLGTLDAVVLEQRLGRLRCVCFAGEVFPHRQLATLMSKMPWVRYTNLYGPTETNGCTFEQVLAPPDEAIAIGSPACGAECWVERDGERVDTEGAVGELIVAGPTVADGYWGNEDETARRFRFGREYRSGRAYATGDQVRILPDGRYAYLGRQDHMVKIRGQRLELEEVESVLGTADGVTGCCVVAVTPPGRPALLCAAVVGDQLDHAALRSHCRGRLPSWAIPQRFLEVPAIPLTSTGKTDRQEVRRRVMAELV
notes: as for B7
Purified protein [4]
  Km: 2.5 ± 1 mM
  kcat: 0.000417 ± 5e-05 s⁻¹
  kcat/Km: 0.167 M⁻¹ s⁻¹
Purified protein [3]
  Km: 6.4 ± 1 mM
  kcat: 0.000333 ± 1.67e-05 s⁻¹
  kcat/Km: 0.05 M⁻¹ s⁻¹

B9: CcbC (Streptomyces caelestis) (protein)
chain: MNTSTVRNSLSTLLADTAAATPGATALREPGGDTTYRDLAALAGGIQTALAEAGVRPGDRVAVLAPQTAAAVAAVHAVLSAGAAYVPLDPASPPARWAAVCGMSTPRAVVGTRDALAKLTAELPHLATVDLEAPWPEAPLAPVEREAADLGAVLPTSGSTGVPKGVAISREALLAFASWMVDTFEVGADDVIAGFSPLHFDVSVFSLFGAALTGAALAPAPPQLAGFPHELASWADDAGITVWYSVPYPLARLGTLDAVVLEQRLGRLRCVCFAGEVFPHRQLATLMSKMPWVRYTNLYGPTETNVCTFEQVLAPPDEAIAIGSPACGAECWVERDGERVDTEGAVGELIVAGPTVADGYWGNEDETARRFRFGREYRSGRAYATGDQVRILPDGRYAYLGRQDHMVKIRGQRLELEEVESVLGTADGVTGCCVVAVTPPGRPALLCAAVVGDQLDHAALRSHCRGRLPSWAIPQRFLEVPAIPLTSTGKTDRQEVRRRVMAELV
Purified protein [2]
  Km: 0.36 ± 0.03 mM
  kcat: 0.917 s⁻¹
  kcat/Km: 2550 M⁻¹ s⁻¹
